Two molecules from article doi:10.1101/2021.03.23.436624 (bioRxiv, 2021) can be followed below.

The target of series [1] is N. gonorrhoeae LptD (1-801)-3C-His10 and LptE (1-159)-AVI complex, biotinylated (Neisseria gonorrhoeae) (UniProt Q5F651). The series can be described thus: grating coupled interferometry.
The series “cryo-EM structure” concerns the molecule itself. The series can be described thus: cryo-EM structure.

B1: Sybody 21 (Sb21) (VHH)
VHH: QVQLVESGGGLVQAGGSLRLSCAASGFPVKYEHMYWYRQAPGKEREWVAAINSAGNETHYADSVKGRFTISRDNAKNTVYLQMNSLKPEDTAVYYCNVKDIGWWAAYDYWGQGTQVTV
As for B1, the dissociation constant Kd – broadly, the concentration at which binding is half-saturated – in series [1] is 10 nM.

B2: Neisseria gonorrhoeae LptD (NgLptD) (natural protein, UniProt Q5F651 24-801, looked up)
chain: ADTVAAEEADGRVAEGGAQGASESAQASDLTLGSTCLFCSNESGSPERTEAAVQGSGEASVPEDYTRIVADRMEGQSKVKVRAEGSVIIERDGAVLNTDWADYDQSGDTVTVGDRFALQQDGTLIRGETLTYNLDQQTGEAHNVRMETEQGGRRLQSVSRTAEMLGEGRYKLTETQFNTCSAGDAGWYVKAASVEADRGKGIGVAKHAAFVFGGVPLFYTPWADFPLDGNRKSGLLVPSVSAGSDGVSLSVPYYFNLAPNFDATFAPGIIGERGATFDGQIRYLRPDYSGQTDLTWLPHDKKSGRNNRYQAKWQHRHDISDTLQAGVDFNQVSDSGYYRDFYGGEEIAGNVNLNRRVWLDYGGRAAGGSLNAGLSVQKYQTLANQSGYKDEPYAIMPRLSADWHKNAGRAQIGVSAQFTRFSHDGRQDGSRLVVYPGIKWDFSNSWGYVRPKLGLHATYYSLDSFGGKASRSVGRVLPVVNIDGGTTFERNTRLFGGGVVQTIEPRLFYNYIPAKSQNDLPNFDSSESSFGYGQLFRENLYYGNDRINAANSLSTAVQSRILDGATGEERFRAGIGQKFYFKDDAVMLDGSVGKNPRSRSDWVAFASGGIGGRFTLDSSIHYNQNDKRAEHYAVGAGYRPAPGKVLNARYKYGRNEKIYLQADGSYFYDKLSQLDLSAQWPLTRNLSAVVRYNYGFEAKKPIEMLAGAEYKSSCGCWGAGVYAQRYVTGENTYKNAVFFSLQLKDLSSVGRNPAGRMDVAVPGYIPAHSLSAGRNKRP
For the molecule B2, in the series “cryo-EM structure”, the binding result was “binds”.
